Results published in PMC8703390, “Humanization, Radiolabeling and Biodistribution Studies of an IgG1-Type Antibody Targeting Uncomplexed PSA for Theranostic Applications” (Pharmaceuticals, 2021).

Legend:
Conditions in all cases: both partners purified
[1] = target: T1, human kallikrein-2 (hK2) (Homo sapiens, UniProt P20151); assay: SPR; control hK2 antigen; data not shown
T1 construct: human kallikrein-2 (hK2), the human protein most similar to PSA; source: bought: Innovagen AB (ELISA)

[2] = target: T2, prostate-specific antigen (PSA), uncomplexed free PSA (Homo sapiens, UniProt P07288); assay: SPR; Biacore 2000; PSA immobilised on a CM4 chip by amine coupling (900-1000 RU); antibodies at 100, 50, 25, 12.5 and 10 nM in HSP-buffer flown at 30 uL/min; association 4-5 min, dissociation up to 480 min; bi-exponential fits to binding and dissociation curves; KD = Koff/Kon
T2 construct: prostate-specific antigen (PSA), human kallikrein; uncomplexed (free) form; also called fPSA; source: bought: Merck (ELISA)

[3] = target: T1, human kallikrein-2 (hK2); assay: ELISA; wells coated with PSA or hK2 (100 uL at 1 ug/mL) overnight; h5A10 dilution series from 5 ug/mL in four-fold steps, 1 h at RT; detected with goat anti-human-AP and pNPP, absorbance at 405 nm

T2 sequence (P07288 25-261, one chain of several): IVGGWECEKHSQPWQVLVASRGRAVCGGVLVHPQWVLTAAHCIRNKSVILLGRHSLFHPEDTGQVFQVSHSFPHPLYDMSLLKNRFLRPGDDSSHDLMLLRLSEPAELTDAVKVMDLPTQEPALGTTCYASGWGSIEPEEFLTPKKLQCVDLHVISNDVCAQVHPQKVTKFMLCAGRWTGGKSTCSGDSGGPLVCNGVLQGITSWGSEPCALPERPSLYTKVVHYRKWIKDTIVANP
T1 sequence (P20151 19-261): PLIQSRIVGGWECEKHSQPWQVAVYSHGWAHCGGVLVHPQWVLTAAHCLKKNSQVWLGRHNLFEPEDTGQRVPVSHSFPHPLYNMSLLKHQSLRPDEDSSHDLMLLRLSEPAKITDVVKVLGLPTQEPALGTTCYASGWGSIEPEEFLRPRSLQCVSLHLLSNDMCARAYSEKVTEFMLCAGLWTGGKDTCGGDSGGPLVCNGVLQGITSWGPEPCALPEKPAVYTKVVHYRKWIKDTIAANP

Binder	Kd [2] [nM]	koff [2] [s⁻¹]	kon [2] [M⁻¹ s⁻¹]	binding result [3]	binding result [1]
murine 5A10 monoclonal IgG1 (antibody, V domains shown, heavy chain variable domain of m5A10; murine IgG1 heavy chain constant region; light chain variable domain of m5A10; light chain constant region; Murine IgG1; also called m5A10; parental murine antibody m5A10; source: provided by the University of Turku (Finland), prepared as previously described [8]) VH: EVQLVESGPGILQPSQTLSLTCSFSGFSLSTTGMGVSWIRQPSGKGLEWLAHLYWDEDKRYNPSLKSRLTISEDSSRNQVFLKITSVGPADSATYYCARKGYYGYFDYWGQGTALTVSS VL: DIVMTQSQKFMSTSVGDRVSVTCKASQNVNTDVAWYQQKPGQSPKALIFSTSYRSSGVPDRFTGSGSGTDFTLTITNVQSEDLAEYFCQQYSNYPLTFGAGTKVDLN	0.022	5.4e-06	250000		no binding (tested: 100, 50, 25, 12.5 and 10 nM)
murine 5A10 conjugated with p-SCN-Bn-CHX-A''-DTPA (antibody, V domains shown, as the heavy chain variable domain of m2; murine IgG1 heavy chain constant region, as in m2; as the light chain variable domain of m2; as the light chain constant region of m2; Murine IgG1; also called m5A10-DTPA; DTPA-m5A10; source: provided by the University of Turku (Finland); conjugated with p-SCN-Bn-CHX-A''-DTPA and separated from free chelate on a NAP-5 column) VH: EVQLVESGPGILQPSQTLSLTCSFSGFSLSTTGMGVSWIRQPSGKGLEWLAHLYWDEDKRYNPSLKSRLTISEDSSRNQVFLKITSVGPADSATYYCARKGYYGYFDYWGQGTALTVSS VL: DIVMTQSQKFMSTSVGDRVSVTCKASQNVNTDVAWYQQKPGQSPKALIFSTSYRSSGVPDRFTGSGSGTDFTLTITNVQSEDLAEYFCQQYSNYPLTFGAGTKVDLN	0.023	6.3e-06	270000		no binding (tested: 100, 50, 25, 12.5 and 10 nM)

Stronger by Kd [2], values ahead:

Kd [2] [nM]	koff [2] [s⁻¹]	kon [2] [M⁻¹ s⁻¹]	binding result [3]	Binder	binding result [1]
0.012	4.8e-06	390000		humanized 5A10 conjugated with p-SCN-Bn-CHX-A''-DTPA (antibody, V domains shown, as the heavy chain variable domain of m1; IgG1 heavy chain constant region, as in m1; as the light chain variable domain of m1; as the light chain constant region of m1; not described; IgG1; 111In labelling used the 3:1 conjugate, 177Lu labelling the 12:1 conjugate; also called h5A10-DTPA; DTPA-h5A10; source: HEK293 cells, transfected; purified by Protein G chromatography; conjugated with …) VH: QVTLKESGPALVKPTQTLTLTCTFSGFSLSTTGMGVSWIRQPPGKALEWLAHIYWDDDKRYSTSLKTRLTISEDSSKNQVVLTMTNMDPVDTATYYCARKGYYGYFDYWGQGTLVTVSS VL: DIQMTQSPSSLSASVGDRVTVTCRASQNVNTDVAWYQQKPGKAPKALIFSTSYLQSGVPSRFSGSGSGTDFTLTISSLQPEDFATYYCQQYSNYPLTFGQGTKVEIK	no binding (tested: 100, 50, 25, 12.5 and 10 nM)
0.0077	4.8e-06	620000	no binding (tested: 5 µg/mL)	humanized 5A10 IgG1 (antibody, V domains shown, heavy chain variable domain of h5A10; IgG1 heavy chain constant region; light chain variable domain of h5A10; light chain constant region; not described, only the plasmid name p5A10VlhDhK hints at human kappa; IgG1; Light chain constant region probably human kappa (surmised from the plasmid name and the Vk1 template); also called h5A10; humanized antibody h5A10; source: HEK293 cells, transfected; …) VH: QVTLKESGPALVKPTQTLTLTCTFSGFSLSTTGMGVSWIRQPPGKALEWLAHIYWDDDKRYSTSLKTRLTISEDSSKNQVVLTMTNMDPVDTATYYCARKGYYGYFDYWGQGTLVTVSS VL: DIQMTQSPSSLSASVGDRVTVTCRASQNVNTDVAWYQQKPGKAPKALIFSTSYLQSGVPSRFSGSGSGTDFTLTISSLQPEDFATYYCQQYSNYPLTFGQGTKVEIK	
